Source: the DeepSol protein solubility set

assay: soluble on expression in E. coli; label from the status in PepcDB or PDB records

| Sequence | soluble on expression in E. coli |
| --- | --- |
| MGSDKIHHHHHHQSFTPGEIWPDNHQVHINAHGGGILYENGTYYWFGEHKTEGEAGNLANVGVHCYSSDDLYHWKDCGIALSVIENDPGHPISKGCILERPKVIYNPLTKKYVMWFHLEPKGAGYSGALSGIALSDRVTGPYTFLKAVRPNAGSWPINVLPIHKTTRRPSAEEERQCTGGSLPAHPDSLNILGRDMEQGQMARDMNLFVDDDGKAYHIYSSEENSTLHIAELDPTYTGYTGKYIRVFINRFMEAPAMFKKDGNYYLIMSGCSGWNPNAARSAIASSIWGEWKELGNPCIGQDADLTFHSQSTYILPVQGKKNQFIYMGDRWTPQNAIDGRYIWLPIHFEGPKPIIEWKDSWTLD | not soluble |
| MGSDKIHHHHHHRSPQGQFTEDDNPNALVNGKIYNVYTMMRSFDITAGTPAIAIHYLRSEDSEKGSIPSDGSDVAEMYDDFLYTPTNGLLGSYWGKNYAIIYQCNDILDAIAEKETAGQTETEDIINKGEASFFRAYCYFNLVRAFGEVPLVTYKINDASEANIPKTTADKIYEQIDTDLKTAEESLPETWSTEYTGRLTWGAARSLHARTYMMRSDWDNMYKASTDVINKGLYNLKTPYNEIFTDDGENSGGSIFELQCTATAALPQSDVIGSQFCEVQGVRGAGQWDLGWGWHMATQLMADAYETGDPRKNATLLYFRKTDDEPITPENTNEPYGESPISPAMGAYFNKKAYTDPALRKEYTNKGFWVNIRLIRYSDVVLMAAEAANEKNIPGEAVDYLEMVRARARGTNTNILPKITTNDQGELREAIRHERRVELGLEPDRFYDLVRWGIASEVLHAAGKVNYQDKNALLPLPQSEIDKSKGVLVQNPDY | not soluble |
| MGSDKIHHHHHHSCGGKKNSGQLSDTAVQIVKPEFPQIVPFETGIETEQEILLSEIADSIRYIPLETNNKCLIRGLKGSNIIRTKEYFFLPWIDKLFQYTKDGKFIRTLGRKGGGPGEFNWIMQIDVDEKKGLVYMLTTTGKINIYSMETGKFIRAMKVPNIEVSEFAMLRVQDTIAATFMRNNNGKRKERIYLSNLKGDTLKIFNRWDLFDLNSKYRWMISSDIDRYMFHYKSHTCYKEYYNDTLFTITQETLEPRYIFQMGKYSLPIECRFEYLNGDGKRFQEVAAPYIQYNTIETDSYIFMPYSNWAGEKEQERQMAIYDKKAKNCFKVSTGHIKNDLTPGLPLRPITALDSHTLLYVWEAPELLEKAEKTPSILQIEPLKGLNEDDNPVMMIVYLKQP | not soluble |
| MGSDKIHHHHHHSCSSKPANTAKGEKGSDKTGKDLELKLSFQEGIAPGESLNEKLDFMEKLGVVGFEPGGGGLAGRVNEIKQALNGRNIKVSAICAGFKGFILSTDPAIRKECMDTMKEIIAAAGELGSTGVIIVPAFNGQVPALPHTMETRDFLCEQFNEMGTFAAQHGTSVIFEPLNRKECFYLRQVADAASLCRDINNPGVRCMGDFWHMTWEETSDMGAFISGGEYLQHVHVASRKRRSMPGEDGDADNYINGFKGLKMIGYNNYVSFECGCQGDRNVVVPAAVKLLREQWEQA | not soluble |
| MGSDKIHHHHHHSDEKYPMPTSIDQNSLSAEAKAGAIKLKWTVPADSNYYYVKVTYTLPEDGKKCMRLASVNSDTMLVDNLLHRYGDINFTLQPCNRAGEASQSCSIMAQALPALKQIKTDRNPITLSAKQLYTDDQESSEGPIANLVDGRNDTYFHMSWSSPTPFPHYIVVDLGEENALSTFLFSYVCRDNNNKDNPKEMDILGSNTFDGKNYDESQTTLLASLSNLPNTKAASYESDIIKAGASYRYLWFKVKSSTSGSNWIALAELGLSKVIVKTYDPETGETTIE | not soluble |
| MGSDKIHHHHHHTEMEPKFTEPVNINGEDYYKALREYKKSDHPIVFGWYSEWTGTGTNMNNQLRGIPDSMDIVSLWGGAFNLTEAQKSDLKEVREKKGLRVLYCQHITDIGRSHTPASVENDFIVDGVQYNSKDEAMAAYWGWYGNYGDTSEEGQEKAIRKYARVIIDSINKYNYDGFDIDFEPNFGYSGNLSGNSDRMHIFLDELSKEFGPKSGTGRILMVDGEPQTLNKESGPLLDYYVVQAYYCRSDEGYSDALDGRFDRLLNKFGSIEDEATILSKTVWCEDFEKHKGDGGPEFTTRDGIVTYSLKGMAMYYRPGVDARIGGVGAYRFNLCRPVNDYFFMREVIQVLNPANH | not soluble |
| MGSDKIHHHHHHTHSVETPYGSVTFTVYGTPKPKRPAIFTYHDVGLNYKSCFQPLFRFGDMQEIIQNFVRVHVDAPGMEEGAPVFPLGYQYPSLDQLADMIPCILQYLNFSTIIGVGVGAGAYILSRYALNHPDTVEGLVLINIDPNAKGWMDWAAHKLTGLTSSIPDMILGHLFSQEELSGNSELIQKYRGIIQHAPNLENIELYWNSYNNRRDLNFERGGETTLKCPVMLVVGDQAPHEDAVVECNSKLDPTQTSFLKMADSGGQPQLTQPGKLTEAFKYFLQG | soluble |
| MGSDKIHHHHHHTQKPDITYMPQPPFNPPTYVCYKAPAPIKIDGKLSPGEWDAIPWTSDFVDIEGDKRPAPHFQTRAKMTYDDNGMYFAVLMEEPHVWATITEHDAVIFHDNDFEIFLNPTNDTHNYLEYEVNALGTEWDLFLTRPYRDNPQVLNNWEFTGMKSAVYVDGTLNNPKDTDKSWSVEVFIPWTSVFQMDRGKEKPEIGEQIRVNFSRVEWTTDVKDGKYVKVPIQGEDKIREYNWVWAPTGVINIHMPEYWGYVQISDKIAGEGETPFVKHPSEETKWILRNLYYRQNEFAATFGHYADNINDLKANELCPQEIANQLEIHTTPSMYEISLPAPDGTVWNIRQDGLVWPKKK | not soluble |
| MGSDKIHHHHHHVAASPLRGRTPHRRGPRACRRGPLPRVGAGGLRQMTATEAYLQKGWLRFAAEESIRDWAAHAQRCAETATADPAHAKWLDCEGTWFIGVDALPNDPDGRLPSGPPLEGAALDFIRAHFGEIPALHRAQLSVIYPGYPRPRRGESDAAFGYRCKRDGAHVDGIKIYGTARRRRVEEPHAWVLGLPLNKTSKNAAPLVVWEGSHLIMREAFRLAFEGIALEDWAHVDITDIYTAARREVFETCKRVEVHANPGEAYLMHRLCLHGVAPWADGASATDGAGRMIAYFRPEMPNWQAHWLSDL | not soluble |
| MGSDKIHHHHHHVAETTTEQTIQKASSAIHYNAFSHNDYWRERPLLDALSFRFNCVEADLWLIDDELYVSHDRPEPNPAITFENLYLKPLVARIQANGGKVYPGSDRPFYLMVDCKAQGEEMYKLLKKQMEPYKEYFCSVDNGEYKEGAVLFFLSGDRPKNSLPKENSRFTFLDGQIKDLGQGIPASLAPVISDNYSDFFTWKGEGEMPADQLQKMREIIRKVHDEGKLFRWWGAPDTEQFKRFFIKEGVDLVGADDLNGLYNVLNER | not soluble |
| MGSDKIHHHHHHVGTVNVRSGRMRYFTNRDAPLDVEHVMAPAAFPPGFPAVRLEAESYWDGGIYSNTPLEAVLDDRPRRDSVIFSVQLWPSSGPEPESILQVMSRQRDIQYSSRAESHLDRQKQIHRLRHVIRELGQHLPEEQRNAPAVRELLDWGCGTTMQVLELDAPAFDNDDLNRDIDFSSAGIERRWRAGYEDTARLLKLAPWRETLDPMEGISVFRMASAESRK | not soluble |
| MGSDKIHHHHHHVIEVIRQRVLPHYGLEGNAAKVSPLGNGHINDTFLVTWDEGSMVLQRLNTSVFQAPWTLVENAELISRHLGEKEGKDYELKVVSPKTTAEGDLGIDLGEAGFWRAIRYLKHSNSIDVVGSEAQAEQAARAFGHFARALCDFDATRIGDVIPKFHFLPGRLAALEQAAADNKAGRLDTCREWVDFALCQRGLLDELAALEPKLPLRVCHNDTKINNMLFDKRDDSAMAIIDLDTCMKGHLMYDFGDMVRTFTSPEAEDSTALDKVRVRPEIFAAICRGYLAELGDVLEAAERESLWLGARIMCLMIGVRFLTDYLNGDLYFHVHREGHNLDRAANQFTLYQSLLTQADRLKPCIF | not soluble |
| MGSDKIHHHHHHVIKLIRQFVLPHFGIDATEAKISALGNGHINETLLVRWPTGELVLQRINTQVFKTPQALVSNADKISHHLCAKALQQQYGLKVVSPCLTKEGELALDLGEQGFWRAISYLPHSHSIEVVKSEKEAEMAAKAFGHFASALSDFDATQLEDVIPQFHHLPGRMALLKQAVELDSQHRLAFCRHWVDYAVSQQALLDELAEISPKLPLRICHNDTKINNMLFDKRDMSSMAIIDLDTCMKGHLMYDFGDMVRTFCSPEAEDSTALENVKVRQSIFAAICRGYLSELGNVLTEVEKRSLWLGARVICLMIGVRFLTDYLNGDVYFHIHREGHNLDRAANQFTLYQSLLDQDVALKACFELNPLSAVEHS | not soluble |
